Common to all, as to assay: co-IP (IP: Strep, western blot bands quantified with ImageJ)
Background: In western blotting, separated proteins are transferred to a membrane and probed.

Test [1] has as its target GP4 of PRRSV HuN4-F112, Strep-tagged (pCAGGS-GP4-Strep). Conditions: plasmids cotransfected into HEK-293T cells; parent: est. 0.86; read off a plot.
For test [2], the target named is CD163 receptor, HA-tagged (pCAGGS-CD163-HA) (UniProt Q2VL90). Conditions: plasmids cotransfected into HEK-293T cells, read off a plot.
Test [3] has as its target GP2a of PRRSV HuN4-F112, Strep-tagged (pCAGGS-GP2a-Strep). The following applies: chain shown with the change; plasmids cotransfected into HEK-293T cells; parent: est. 2.9; read off a plot.

For the molecule “CD163 receptor, HA-tagged (pCAGGS-CD163-HA) (from UniProt Q2VL90) R561A”, the response (relative ratio of CD163/GP4) in test [1] amounted to 0.64.
Take “CD163 receptor, HA-tagged (pCAGGS-CD163-HA) (from UniProt Q2VL90) R561del”: in test [1], the response (relative ratio of CD163/GP4) amounted to 0.27.
Consider “GP2a of PRRSV HuN4-F112, Strep-tagged (pCAGGS-GP2a-Strep) V118I”, for which the response (relative ratio of CD163/GP2) in test [2] (parent: est. 0.18) stood at 0.67.
Regarding “GP2a of PRRSV HuN4-F112, Strep-tagged (pCAGGS-GP2a-Strep) V118del”, in test [2] (parent: est. 0.61), the response (relative ratio of CD163/GP2) amounted to 0.23.
Consider “GP4 of PRRSV HuN4-F112, Strep-tagged (pCAGGS-GP4-Strep) N43D”, for which the response (relative ratio of CD163/GP4) in test [2] (parent: est. 0.74) worked out at 1.4.
As to “GP4 of PRRSV HuN4-F112, Strep-tagged (pCAGGS-GP4-Strep) N43del”, the response (relative ratio of CD163/GP4) in test [2] (parent: est. 1.2) was found to be 0.57.

B1: CD163 receptor, HA-tagged (pCAGGS-CD163-HA), Q2VL90 R561del (protein)
chain: KDKELRLTGGENKCSGRVEVKVQEEWGTVCNNGWDMDVVSVVCRQLGCPTAIKATGWANFSAGSGRIWMDHVSCRGNESALWDCKHDGWGKHNCTHQQDAGVTCSDGSDLEMGLVNGGNRCLGRIEVKFQGRWGTVCDDNFNINHASVVCKQLECGSAVSFSGSANFGEGSGPIWFDDLVCNGNESALWNCKHEGWGKHNCDHAEDAGVICLNGADLKLRVVDGVTECSGRLEVKFQGEWGTICDDGWDSDDAAVACKQLGCPTAVTAIGRVNASEGTGHIWLDSVSCHGHESALWQCRHHEWGKHYCNHDEDAGVTCSDGSDLELRLKGGGSHCAGTVEVEIQKLVGKVCDRSWGLKEADVVCRQLGCGSALKTSYQVYSKTKATNTWLFVSSCNGNETSLWDCKNWQWGGLSCDHYDEAKITCSAHRKPRLVGGDIPCSGRVEVQHGDTWGTVCDSDFSLEAASVLCRELQCGTVVSLLGGAHFGEGSGQIWAEEFQCEGHESHLSLCPVAPPDGTCSHSRDVGVVCSRYTQIRLVNGKTPCEGRVELNILGSWGSLCNSHWDMEDAHVLCQQLKCGVALSIPGGAPFGKGSEQVWRHMFHCTGTEKHMGDCSVTALGASLCSSGQVASVICSGNQSQTLSPCNSSSSDPSSSIISEENGVACIGSGQLRLVDGGGRCAGRVEVYHEGSWGTICDDSWDLNDAHVVCKQLSCGWAINATGSAHFGEGTGPIWLDEINCNGKESHIWQCHSHGWGRHNCRHKEDAGVICSEFMSLRLISENSRETCAGRLEVFYNGAWGSVGRNSMSPATVGVVCRQLGCADRGDISPASSDKTVSRHMWVDNVQCPKGPDTLWQCPSSPWKKRLASPSEETWITCANKIRLQEGNTNCSGRVEIWYGGSWGTVCDDSWDLEDAQVVCRQLGCGSALEAGKEAAFGQGTGPIWLNEVKCKGNETSLWDCPARSWGHSDCGHKEDAAVTCSEIAKSRESLHATGRSSFVALAIFGVILLACLIAFLIWTQKRRQRQRLSVFSGGENSVHQIQYREMNSCLKADETDMLNPSGDHSEVQ
Consider B1, for which the response (relative ratio of CD163/GP2) in test [3] is 1.8.

B2: CD163 receptor, HA-tagged (pCAGGS-CD163-HA), Q2VL90 R561A (protein)
chain: KDKELRLTGGENKCSGRVEVKVQEEWGTVCNNGWDMDVVSVVCRQLGCPTAIKATGWANFSAGSGRIWMDHVSCRGNESALWDCKHDGWGKHNCTHQQDAGVTCSDGSDLEMGLVNGGNRCLGRIEVKFQGRWGTVCDDNFNINHASVVCKQLECGSAVSFSGSANFGEGSGPIWFDDLVCNGNESALWNCKHEGWGKHNCDHAEDAGVICLNGADLKLRVVDGVTECSGRLEVKFQGEWGTICDDGWDSDDAAVACKQLGCPTAVTAIGRVNASEGTGHIWLDSVSCHGHESALWQCRHHEWGKHYCNHDEDAGVTCSDGSDLELRLKGGGSHCAGTVEVEIQKLVGKVCDRSWGLKEADVVCRQLGCGSALKTSYQVYSKTKATNTWLFVSSCNGNETSLWDCKNWQWGGLSCDHYDEAKITCSAHRKPRLVGGDIPCSGRVEVQHGDTWGTVCDSDFSLEAASVLCRELQCGTVVSLLGGAHFGEGSGQIWAEEFQCEGHESHLSLCPVAPAPDGTCSHSRDVGVVCSRYTQIRLVNGKTPCEGRVELNILGSWGSLCNSHWDMEDAHVLCQQLKCGVALSIPGGAPFGKGSEQVWRHMFHCTGTEKHMGDCSVTALGASLCSSGQVASVICSGNQSQTLSPCNSSSSDPSSSIISEENGVACIGSGQLRLVDGGGRCAGRVEVYHEGSWGTICDDSWDLNDAHVVCKQLSCGWAINATGSAHFGEGTGPIWLDEINCNGKESHIWQCHSHGWGRHNCRHKEDAGVICSEFMSLRLISENSRETCAGRLEVFYNGAWGSVGRNSMSPATVGVVCRQLGCADRGDISPASSDKTVSRHMWVDNVQCPKGPDTLWQCPSSPWKKRLASPSEETWITCANKIRLQEGNTNCSGRVEIWYGGSWGTVCDDSWDLEDAQVVCRQLGCGSALEAGKEAAFGQGTGPIWLNEVKCKGNETSLWDCPARSWGHSDCGHKEDAAVTCSEIAKSRESLHATGRSSFVALAIFGVILLACLIAFLIWTQKRRQRQRLSVFSGGENSVHQIQYREMNSCLKADETDMLNPSGDHSEVQ
On to B2, for which the response (relative ratio of CD163/GP2) in test [3] was found to be 1.8.
